Assay [1] concerns the target NKG2D ligands (NKG2DL) on tumor cell lines. Description: cell-based or functional assay.
The target of a further assay is ULBP2-Fc (UniProt Q9BZM5). Description: cell-based or functional assay.
Chain of UniProt Q9BZM5 (Q9BZM5 26-217 limits assumed): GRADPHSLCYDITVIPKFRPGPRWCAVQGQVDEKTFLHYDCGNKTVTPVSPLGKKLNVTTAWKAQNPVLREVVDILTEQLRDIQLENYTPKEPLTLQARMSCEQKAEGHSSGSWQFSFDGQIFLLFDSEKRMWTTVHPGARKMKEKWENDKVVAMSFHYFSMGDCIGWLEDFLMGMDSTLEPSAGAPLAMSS

As to dimeric NKG2D-CD3ε TFP (receptor), the tumor cell lysis, luciferase reporter assay, 24 h co-culture, E:T 1-to-1 in assay [1] was in the range of 30 to 50%. The substance further registered a proliferation of CFSE-labelled TFP T cells on plate-bound antigen, three-day culture, flow cytometry with ULBP2-Fc of 60 ng/mL.

In assay [1], monomeric NKG2D-CD3ε TFP (receptor) came in with a tumor cell lysis, luciferase reporter assay, 24 h co-culture, E:T 5-to-1 of 30 to 50%. This substance also gave a proliferation of CFSE-labelled TFP T cells on plate-bound antigen, three-day culture, flow cytometry with ULBP2-Fc of 250 ng/mL.

The record behind these values is patent US20190276540A1.
